Patent US12534531 (MacroGenics, dated 2026)
One block for each binder: values may come before it.

Assays:
[1] = target: T1, human LAG-3 expressed on NSO cells (human, UniProt P18627 29-525); experiment: FACS saturation binding to NSO cells expressing LAG-3; SM; SD 0.3045
T1 sequence: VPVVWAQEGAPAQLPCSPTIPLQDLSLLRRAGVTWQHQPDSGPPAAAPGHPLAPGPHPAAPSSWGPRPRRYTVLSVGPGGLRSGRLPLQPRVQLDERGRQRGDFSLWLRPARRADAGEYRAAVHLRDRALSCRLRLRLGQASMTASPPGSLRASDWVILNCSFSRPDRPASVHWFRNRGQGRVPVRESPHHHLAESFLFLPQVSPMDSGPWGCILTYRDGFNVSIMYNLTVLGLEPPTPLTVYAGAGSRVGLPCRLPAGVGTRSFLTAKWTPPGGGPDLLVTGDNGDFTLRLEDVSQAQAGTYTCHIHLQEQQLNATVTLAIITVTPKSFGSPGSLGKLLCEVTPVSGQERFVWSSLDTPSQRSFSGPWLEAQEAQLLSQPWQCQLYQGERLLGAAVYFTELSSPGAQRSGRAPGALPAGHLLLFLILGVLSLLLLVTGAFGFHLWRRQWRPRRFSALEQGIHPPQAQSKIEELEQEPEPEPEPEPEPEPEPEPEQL

[2] = target: T2, biotinylated-soluble human LAG-3-Fc fusion protein (human, UniProt P18627 23-450, biotinylated (site not stated)); experiment: FACS: inhibition of shLAG-3-Fc binding to MHC II on Daudi cells (column head prints EC50); SM; SD 3.3552
T2 construct: whole entry named; also called shLAG-3; shLAG-3-Fc; not shown: Fc
T2 sequence: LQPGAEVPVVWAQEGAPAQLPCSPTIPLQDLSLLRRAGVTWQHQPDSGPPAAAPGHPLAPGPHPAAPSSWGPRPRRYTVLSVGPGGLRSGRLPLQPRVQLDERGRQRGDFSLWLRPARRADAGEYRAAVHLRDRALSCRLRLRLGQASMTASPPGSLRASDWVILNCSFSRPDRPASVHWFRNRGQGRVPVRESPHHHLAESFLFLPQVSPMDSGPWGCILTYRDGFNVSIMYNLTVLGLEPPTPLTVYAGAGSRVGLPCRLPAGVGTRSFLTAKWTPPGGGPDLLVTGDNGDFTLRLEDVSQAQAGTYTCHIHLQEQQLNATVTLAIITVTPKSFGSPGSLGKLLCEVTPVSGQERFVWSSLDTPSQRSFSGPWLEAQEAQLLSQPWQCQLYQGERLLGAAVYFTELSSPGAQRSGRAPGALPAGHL

[3] = target: T3, human PD-1 expressed on the surface of cells (NSO cells expressing human PD-1; MNFAT-luc2/PD-1 Jurkat cells) (human, UniProt Q15116 21-288); experiment: FACS: inhibition of sPD-L1 binding to PD-1 on NSO cells; SM; SD 0.3581
T3 construct: also called cell surface PD-1; PDCD1 transfected NSO cells expressing PD-1
T3 sequence (Q15116 21-288): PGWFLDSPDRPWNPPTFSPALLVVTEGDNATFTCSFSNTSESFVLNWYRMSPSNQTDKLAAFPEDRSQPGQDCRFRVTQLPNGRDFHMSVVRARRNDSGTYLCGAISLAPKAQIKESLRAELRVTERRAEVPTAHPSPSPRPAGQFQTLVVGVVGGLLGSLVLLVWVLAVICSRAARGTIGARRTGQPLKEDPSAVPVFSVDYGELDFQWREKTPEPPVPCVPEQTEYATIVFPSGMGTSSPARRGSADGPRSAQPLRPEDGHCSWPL

[4] = target: T3, human PD-1 expressed on the surface of …; experiment: FACS saturation binding to NSO cells expressing PD-1; SM; SD 0.6227
[5] = target: T3, human PD-1 expressed on the surface of …; experiment: FACS: inhibition of sPD-L2 binding to PD-1 on NSO cells; SM; SD 0.7891
[6] = target: T2, biotinylated-soluble human LAG-3-Fc …; experiment: FACS: inhibition of shLAG-3-Fc binding to MHC II on Daudi cells (column head prints EC50); SM; SD 1.2674
[7] = target: T1, human LAG-3 expressed on NSO cells; experiment: FACS saturation binding to NSO cells expressing LAG-3; SM; SD 0.5770
[8] = target: T3, human PD-1 expressed on the surface of …; experiment: FACS: inhibition of sPD-L2 binding to PD-1 on NSO cells; SM; SD 0.0846
[9] = target: T3, human PD-1 expressed on the surface of …; experiment: FACS: inhibition of sPD-L1 binding to PD-1 on NSO cells; SM; SD 0.1729
[10] = target: T3, human PD-1 expressed on the surface of …; experiment: FACS saturation binding to NSO cells expressing PD-1; single experiment

- EC50 [1]: 940 nM
- IC50 [2]: 2060 nM
- IC50 [3]: 1600 nM
- EC50 [4]: 1150 nM
- IC50 [5]: 2550 nM
B1: DART G (bispecific antibody, human IgG1, kappa, L234A L235A)
chain 1: QVQLVQSGAEVKKPGASVKVSCKASGYTFTNYGMNWVRQAPGQGLEWMGWINTYTGESTYADDFEGRFVFSMDTSASTAYLQISSLKAEDTAVYYCARESLYDYYSMDYWGQGTTVTVSSASTKGPSVFPLAPSSKSTSGGTAALGCLVKDYFPEPVTVSWNSGALTSGVHTFPAVLQSSGLYSLSSVVTVPSSSLGTQTYICNVNHKPSNTKVDKRVEPKSCDKTHTCPPCPAPEAAGGPSVFLFPPKPKDTLYITREPEVTCVVVDVSHEDPEVKFNWYVDGVEVHNAKTKPREEQYNSTYRVVSVLTVLHQDWLNGKEYKCKVSNKALPAPIEKTISKAKGQPREPQVYTLPPSREEMTKNQVSLSCAVKGFYPSDIAVEWESNGQPENNYKTTPPVLDSDGSFFLVSKLTVDKSRWQQGNVFSCSVMHEALHAKYTQKSLSLSPG
chain 2: DIVMTQTPLSLSVTPGQPASISCKSSQSLLHSDAKTYLNWLLQKPGQPPERLIYLVSELDSGVPDRFSGSGSGTDFTLKISRVEAEDVGVYYCWQGTHFPYTFGGGTKVEIKRTVAAPSVFIFPPSDEQLKSGTASVVCLLNNFYPREAKVQWKVDNALQSGNSQESVTEQDSKDSTYSLSSTLTLSKADYEKHKVYACEVTHQGLSSPVTKSFNRGEC
chain 3: QVQLVQSGAEVKKPGASVKVSCKASGYTFTNYGMNWVRQAPGQGLEWMGWINTYTGESTYADDFEGRFVFSMDTSASTAYLQISSLKAEDTAVYYCARESLYDYYSMDYWGQGTTVTVSSASTKGPSVFPLAPSSKSTSGGTAALGCLVKDYFPEPVTVSWNSGALTSGVHTFPAVLQSSGLYSLSSVVTVPSSSLGTQTYICNVNHKPSNTKVDKRVEPKSCDKTHTCPPCPAPEAAGGPSVFLFPPKPKDTLYITREPEVTCVVVDVSHEDPEVKFNWYVDGVEVHNAKTKPREEQYNSTYRVVSVLTVLHQDWLNGKEYKCKVSNKALPAPIEKTISKAKGQPREPQVYTLPPSREEMTKNQVSLWCLVKGFYPSDIAVEWESNGQPENNYKTTPPVLDSDGSFFLYSKLTVDKSRWQQGNVFSCSVMHEALHNHYTQKSLSLSPGGGGSGGGSGGGEIVLTQSPATLSLSPGERATLSCRASESVDNYGMSFMNWFQQKPGQPPKLLIHAASNQGSGVPSRFSGSGSGTDFTLTISSLEPEDFAVYFCQQSKEVPYTFGGGTKVEIKGGGSGGGGQVQLVQSGAEVKKPGASVKVSCKASGYSFTSYWMNWVRQAPGQGLEWIGVIHPSDSETWLDQKFKDRVTITVDKSTSTAYMELSSLRSEDTAVYYCAREHYGTSPFAYWGQGTLVTVSSGGCGGGEVAALEKEVAALEKEVAALEKEVAALEK
chain 4: EIVLTQSPATLSLSPGERATLSCRASESVDNYGMSFMNWFQQKPGQPPKLLIHAASNQGSGVPSRFSGSGSGTDFTLTISSLEPEDFAVYFCQQSKEVPYTFGGGTKVEIKGGGSGGGGQVQLVQSGAEVKKPGASVKVSCKASGYSFTSYWMNWVRQAPGQGLEWIGVIHPSDSETWLDQKFKDRVTITVDKSTSTAYMELSSLRSEDTAVYYCAREHYGTSPFAYWGQGTLVTVSSGGCGGGKVAALKEKVAALKEKVAALKEKVAALKE

- IC50 [6]: 1530 nM
- EC50 [7]: 5010 nM
- IC50 [8]: 839 nM
- IC50 [9]: 570 nM
- EC50 [10]: 1430 nM
- EC90 [10]: 14600 nM
B2: DART F (bispecific antibody, human IgG1, kappa, L234A L235A)
chain 1: QVQLVQSGAEVKKPGASVKVSCKASGYSFTSYWMNWVRQAPGQGLEWIGVIHPSDSETWLDQKFKDRVTITVDKSTSTAYMELSSLRSEDTAVYYCAREHYGTSPFAYWGQGTLVTVSSASTKGPSVFPLAPSSKSTSGGTAALGCLVKDYFPEPVTVSWNSGALTSGVHTFPAVLQSSGLYSLSSVVTVPSSSLGTQTYICNVNHKPSNTKVDKRVEPKSCDKTHTCPPCPAPEAAGGPSVFLFPPKPKDTLYITREPEVTCVVVDVSHEDPEVKFNWYVDGVEVHNAKTKPREEQYNSTYRVVSVLTVLHQDWLNGKEYKCKVSNKALPAPIEKTISKAKGQPREPQVYTLPPSREEMTKNQVSLSCAVKGFYPSDIAVEWESNGQPENNYKTTPPVLDSDGSFFLVSKLTVDKSRWQQGNVFSCSVMHEALHAKYTQKSLSLSPG
chain 2: EIVLTQSPATLSLSPGERATLSCRASESVDNYGMSFMNWFQQKPGQPPKLLIHAASNQGSGVPSRFSGSGSGTDFTLTISSLEPEDFAVYFCQQSKEVPYTFGGGTKVEIKRTVAAPSVFIFPPSDEQLKSGTASVVCLLNNFYPREAKVQWKVDNALQSGNSQESVTEQDSKDSTYSLSSTLTLSKADYEKHKVYACEVTHQGLSSPVTKSFNRGEC
chain 3: QVQLVQSGAEVKKPGASVKVSCKASGYSFTSYWMNWVRQAPGQGLEWIGVIHPSDSETWLDQKFKDRVTITVDKSTSTAYMELSSLRSEDTAVYYCAREHYGTSPFAYWGQGTLVTVSSASTKGPSVFPLAPSSKSTSGGTAALGCLVKDYFPEPVTVSWNSGALTSGVHTFPAVLQSSGLYSLSSVVTVPSSSLGTQTYICNVNHKPSNTKVDKRVEPKSCDKTHTCPPCPAPEAAGGPSVFLFPPKPKDTLYITREPEVTCVVVDVSHEDPEVKFNWYVDGVEVHNAKTKPREEQYNSTYRVVSVLTVLHQDWLNGKEYKCKVSNKALPAPIEKTISKAKGQPREPQVYTLPPSREEMTKNQVSLWCLVKGFYPSDIAVEWESNGQPENNYKTTPPVLDSDGSFFLYSKLTVDKSRWQQGNVFSCSVMHEALHNHYTQKSLSLSPGGGGSGGGSGGGDIVMTQTPLSLSVTPGQPASISCKSSQSLLHSDAKTYLNWLLQKPGQPPERLIYLVSELDSGVPDRFSGSGSGTDFTLKISRVEAEDVGVYYCWQGTHFPYTFGGGTKVEIKGGGSGGGGQVQLVQSGAEVKKPGASVKVSCKASGYSFTSYWMNWVRQAPGQGLEWIGVIHPSDSETWLDQKFKDRVTITVDKSTSTAYMELSSLRSEDTAVYYCAREHYGTSPFAYWGQGTLVTVSSGGCGGGEVAALEKEVAALEKEVAALEKEVAALEK
chain 4: EIVLTQSPATLSLSPGERATLSCRASESVDNYGMSFMNWFQQKPGQPPKLLIHAASNQGSGVPSRFSGSGSGTDFTLTISSLEPEDFAVYFCQQSKEVPYTFGGGTKVEIKGGGSGGGGQVQLVQSGAEVKKPGASVKVSCKASGYTFTNYGMNWVRQAPGQGLEWMGWINTYTGESTYADDFEGRFVFSMDTSASTAYLQISSLKAEDTAVYYCARESLYDYYSMDYWGQGTTVTVSSGGCGGGKVAALKEKVAALKEKVAALKEKVAALKE
